We go through four molecules from paper PMC10474089, “Activation of oxidoreductases by the formation of enzyme assembly” (Scientific Reports, 2023).

Series [1] deals with D-lactate dehydrogenase (DLD) from Gluconobacter oxydans (Gluconobacter oxydans). Briefly: SEC; Superdex 200 10/300 GL, 25 °C, 0.75 ml/min, 150 mM NaCl, 0.1 mM DTT, 1 mM EDTA, 25 mM Tris-HCl pH 7.5; assembly state against gel filtration standards.
Series [2] addresses Poly-L-lysine (PLL) hydrobromide (molecular weight: 4000–15,000 Da).
The target of series [3] is L-lactate oxidase (LOX) derived from Enterococcus faecium (Enterococcus faecium). In words: SEC; Superdex 200 10/300 GL, 25 °C, 0.75 ml/min, 150 mM NaCl, 0.1 mM DTT, 1 mM EDTA, 25 mM Tris-HCl pH 7.5; assembly state against gel filtration standards.
Series [4] deals with the molecule itself. The series is described as above.

As usually defined, the stoichiometry N is a count of units in the complex or per binding partner.

For the molecule “D-lactate dehydrogenase (DLD) from Gluconobacter oxydans (enzyme)”, the stoichiometry N in series [1] was determined as 4. For the molecule “L-lactate oxidase (LOX) derived from Enterococcus faecium (enzyme)”, the enzyme activity (DCIP assay, 25 nM LOX) with 1 mM PLL against without PLL, at pH 7 and pH 8 in series [2] came to 7.5 fold. Also, in series [3], the stoichiometry N worked out at 4.

B1: Glucose dehydrogenase (GDH) from Acinetobacter calcoaceticus (enzyme, UniProt P13650 25-478, looked up)
chain: DVPLTPSQFAKAKSENFDKKVILSNLNKPHALLWGPDNQIWLTERATGKILRVNPESGSVKTVFQVPEIVNDADGQNGLLGFAFHPDFKNNPYIYISGTFKNPKSTDKELPNQTIIRRYTYNKSTDTLEKPVDLLAGLPSSKDHQSGRLVIGPDQKIYYTIGDQGRNQLAYLFLPNQAQHTPTQQELNGKDYHTYMGKVLRLNLDGSIPKDNPSFNGVVSHIYTLGHRNPQGLAFTPNGKLLQSEQGPNSDDEINLIVKGGNYGWPNVAGYKDDSGYAYANYSAAANKSIKDLAQNGVKVAAGVPVTKESEWTGKNFVPPLKTLYTVQDTYNYNDPTCGEMTYICWPTVAPSSAYVYKGGKKAITGWENTLLVPSLKRGVIFRIKLDPTYSTTYDDAVPMFKSNNRYRDVIASPDGNVLYVLTDTAGNVQKDDGSVTNTLENPGSLIKFTYKAK
notes: PQQ-dependent glucose dehydrogenase, Acinetobacter calcoaceticus; expression vector pET22b-acGDH, a gift from Aisin Cosmos R&D; printed mass 53.7 kDa, calculated pI 8.93; also called acGDH
Take B1: in series [4], the “stoichiometry N” value was 4.

B2: Acetaldehyde dehydrogenase (ALDH) from Sphingomonas wittichii (enzyme)
chain: AQAPITGGRPFADKPFKVEEVARFDSPWAMTFLPGGHMLVTEKAGRLLLLSPDGARRTAVEGVPAVDSSGQGALGEVVAHPDFATNGLVYFSYSAPGSPNGIVLARGKLVGDLGGARLEGVTTLYRAHPLKSGGHYAGRIAFSPDGHLFFSMGERQKFTPAQEPDGVLGKVVRLTMDGQPAPGNPLAAKGFDPAVWSYGHRNPLGLAFDLEGRLWDAEMGPKGGDEVNLILPGRNYGWPIVSNGDHYDGKPIPDHVTRPEFEAPKVSWNPSISPSSLLVYSGKLFPQWRGKALVGALSGEMLILVDLGEEGAKEEARYAMGQRIRAVDQGPDGAVYVLEDKAGGRLLRLMPAG
As for B2, the “stoichiometry N” value in series [4] worked out at 2.
